Reference: the supplement of paper PMC9732359
± gives the uncertainty stated by the source.

Test: protein stability index of a GFP-peptide fusion (yeast GPS) (PSI 1-4); higher = more stable; sorted into four equal gates, so the index is relative within each strain
Summary of the method: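 Each library plasmid carries Cherry plus GFP with a tiled 17-residue yeast protein peptide fused downstream, and the pooled library was carried in yeast. Mid-log cultures in leucine-free medium were sorted into four equal gates by GFP/Cherry ratio. Reads from Illumina sequencing of PCR-amplified plasmids from each gate were assigned to strains by barcodes. Per peptide, the protein stability index was computed as the summed products of gate read frequency and gate number.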

Row | Sequence | protein stability index (doa10∆) | protein stability index (pdr5∆) | protein stability index (san1∆) | protein stability index (ubr1∆)
1 | AETTFLQDVIALSIADD [RPC53] | 2.24 ± 0.07 | 1.8 ± 0.065 | 1.97 ± 0.12 | 2.18 ± 0.07
2 | SMKYDNGVIIAADNLGS [PRE4] | 2.66 ± 0.15 | 3.35 ± 0.088 | 2.5 ± 0.13 | 3.06 ± 0.11
3 | KTQLGSTMTEPVKQSFI [GAL11] | 2.81 ± 0.051 | 2.9 ± 0.06 | 2.56 ± 0.053 | 2.85 ± 0.037
4 | VNDVELAFKKNEMLLKR [MTW1] | 3.24 ± 0.19 | 3.46 ± 0.14 | 3.4 ± 0.14 | 3.11 ± 0.066
5 | MAKFLKAGKVAVVVRGR [RPL27A] | 1.53 ± 0.093 | 1.67 ± 0.057 | 1.57 ± 0.14 | 1.54 ± 0.092
6 | LHYCVSCAIHARIVRVR [RPS26A] | 1.17 ± 0.066 | 1.2 ± 0.083 | 1.15 ± 0.13 | 1.2 ± 0.12
7 | DESLKDEATVPNTRDAE [SWI3] | 3.16 ± 0.074 | 3.31 ± 0.082 | 3.19 ± 0.13 | 3.14 ± 0.077
8 | SEAEQIDTSKNLENMSI [YCG1] | 3.3 ± 0.073 | 3.28 ± 0.068 | 3.17 ± 0.068 | 2.99 ± 0.069
9 | ILSLIEEAAGTKMFEDR [SMC2] | 3.27 ± 0.11 | 3.19 ± 0.09 | 3.19 ± 0.084 | 3.24 ± 0.066
10 | NEPAARLGSEADAKAFL [FAS2] | 3.45 ± 0.065 | 3.42 ± 0.058 | 3.35 ± 0.042 | 3.31 ± 0.077
11 | NELLKCKDDVQLQKILE [MTW1] | 2.97 ± 0.057 | 3.04 ± 0.051 | 3.05 ± 0.035 | 3.04 ± 0.037
12 | CKLFDKISFNLRLKLFL [SRB8] | 1.41 ± 0.069 | 1.23 ± 0.055 | 1.2 ± 0.086 | 1.18 ± 0.046
13 | NWRRLSGRNIHLAVVCV [SSN2] | 2.12 ± 0.085 | 1.58 ± 0.044 | 1.55 ± 0.078 | 2.86 ± 0.045
14 | LPYAIAGSGSTFIYGYC [PRE3] | 2.13 ± 0.14 | 1.42 ± 0.084 | 2.26 ± 0.12 | 2.29 ± 0.085
15 | DIPTIADEHFWADNYER [BRN1] | 3.14 ± 0.2 | 3.18 ± 0.1 | 3.34 ± 0.069 | 3.22 ± 0.04
16 | DLLKFENISLAEFILKN [BRR2] | 2.94 ± 0.082 | 3.3 ± 0.09 | 2.82 ± 0.062 | 2.83 ± 0.074
17 | YGNDEEVLFYEDNYNPK [RPN4] | 3.11 ± 0.094 | 3.2 ± 0.12 | 3.12 ± 0.097 | 2.96 ± 0.074
18 | NTLILRGPRNSREAVRH [RPL18A] | 2.53 ± 0.25 | 2.89 ± 0.18 | – | –
19 | VLDHQRAIPFRRFNSSI [RPL17A] | 2.69 ± 0.095 | 2.39 ± 0.14 | 1.67 ± 0.15 | 1.4 ± 0.13
20 | SEFLNVPFESLQGVTYP [YIL149C/MLP2] | 2.94 ± 0.086 | 2.56 ± 0.078 | 2.72 ± 0.091 | 2.96 ± 0.063

Row | Sequence | protein stability index (doa10∆) | protein stability index (pdr5∆) | protein stability index (san1∆) | protein stability index (ubr1∆)
21 | NKGWKLQSLNESKDLLR [SRB4] | 2.81 ± 0.13 | 2.57 ± 0.1 | 2.32 ± 0.11 | 2.93 ± 0.15
22 | QDVIKVLYQSNATHDED [SWP82] | 2.91 ± 0.043 | 2.89 ± 0.04 | 2.69 ± 0.04 | 2.881 ± 0.028
23 | LGGEINDNEDDDEEYDY [BRR2] | 3.5 ± 0.17 | 3.34 ± 0.081 | 3.28 ± 0.065 | 3.43 ± 0.1
24 | HNGWVTSLATSAGQPNL [ASC1] | 2.32 ± 0.044 | 2.04 ± 0.049 | 2.09 ± 0.08 | 2.12 ± 0.052
25 | KTLKRMIKESSTANPNI [POP1] | 2.54 ± 0.1 | 2.76 ± 0.091 | 2.28 ± 0.092 | 2.67 ± 0.054
26 | EKIMILLVPLALLTKRL [CSN12] | 1.95 ± 0.045 | 1.47 ± 0.04 | 1.33 ± 0.069 | 1.3 ± 0.03
27 | PKYESLKLEYYNLLVKI [RPN5] | 2.1 ± 0.084 | 1.48 ± 0.1 | 1.12 ± 0.3 | 1.24 ± 0.059
28 | TPNMVNSEISNLPKDKS [SSN2] | 2.74 ± 0.08 | 3.08 ± 0.17 | 2.69 ± 0.087 | 2.9 ± 0.066
29 | RLKYALNGREVKAILMQ [RPS4A] | 1.74 ± 0.073 | 1.39 ± 0.062 | 1.62 ± 0.18 | 1.24 ± 0.05
30 | LKEQSEQLKEQMEDMEE [SMC4] | 3.21 ± 0.079 | 2.92 ± 0.13 | 3.3 ± 0.046 | 3.14 ± 0.1
31 | TVEGISKLLREHGYQSR [RPB2] | 3.4 ± 0.21 | 2.97 ± 0.21 | – | 2.64 ± 0.093
32 | ILDSLPSVIHSSVEMLL [YDL116W/NUP84] | 1.97 ± 0.055 | 1.44 ± 0.056 | 1.39 ± 0.084 | 1.44 ± 0.041
33 | GVNELAPIPKGRVKYTK [POP1] | 3.05 ± 0.08 | 2.87 ± 0.06 | 3.17 ± 0.066 | 2.67 ± 0.069
34 | NVNMTVNTMGTGGQTID [MED6] | 3.23 ± 0.3 | 3.44 ± 0.12 | 3.06 ± 0.14 | 3.37 ± 0.29
35 | WRKSDRELTKNILWRIA [SIR4] | 2.91 ± 0.12 | 1.82 ± 0.088 | 2.09 ± 0.25 | 2.54 ± 0.089
36 | VELIESKINELSYYVEE [SMC4] | 3.29 ± 0.12 | 3.42 ± 0.082 | 3.28 ± 0.1 | 3.4 ± 0.083
37 | PGSSITETEVEREQPQE [SRB4] | 3.09 ± 0.093 | 3.38 ± 0.12 | 3.07 ± 0.075 | 3.35 ± 0.078
38 | RLKEINGWEKYLHNVEL [ISW2] | 2.97 ± 0.12 | – | – | 2.94 ± 0.057
39 | KMVGLRGFNNQIMQLKK [SNF2] | 3.35 ± 0.063 | 3.21 ± 0.073 | 3.04 ± 0.068 | 3.35 ± 0.041
40 | RYVYAHFPINVNIVEKD [RPL9A] | 2.04 ± 0.048 | 2.17 ± 0.049 | 2.06 ± 0.062 | 2.19 ± 0.043
